Experimental data as given in article PMC7817217 (Proceedings of the National Academy of Sciences of the …, 2020).
Like-named read-outs stand apart in the source and are kept apart here.

Experiments:
[1] = target: SARS-CoV-2 spike protein receptor binding domain (RBD) (SARS-CoV-2, UniProt P0DTC2 319-541); assay: SPR; details: both partners purified
[2] = target: SARS-CoV-2 spike protein receptor binding domain (RBD) (SARS-CoV-2, UniProt P0DTC2 319-541); assay: SPR; details: both partners purified; remark: listed apart in the source
[3] = target: SARS-CoV-2 spike protein receptor binding domain (RBD) (SARS-CoV-2, UniProt P0DTC2 319-541); assay: SPR
crystal structure = target: the molecule itself; assay: crystal structure

Binder | koff [1] | Kd [2] | further results
bat ACE2 from Rhinolophus macrotis, expressed in insect cells (bACE2-Rm-insect) (domain or fragment) STTEDEAKKFLDKFNSKAEDLSYESSLASWDYNTNISDENVQKMDEAGAKWSAFYEEQSKLAKNYPLEEIQNDTVKRQLQILQQSGSPVLSEDKSKRLNSILNAMSTIYSTGKVCKPNNPQECLLLEPGLDNIMGTSKDYNERLWAWEGWRAEVGKQLRPLYEEYVVLKNEMARGYHYEDYGDYWRRDYETEESSGPGYSRDQLMKDVDRIFTEIKPLYEHLHAYVRAKLMDTYPLHISPTGCLPAHLLGDMWGRFWTNLYPLTVPFGQKPNIDVTDAMLNQGWDANRIFKEAEKFFVSVSLPKMTEGFWNKSMLTEPGDGRKVVCHPTAWDLGKGDFRIKMCTKVTMEDFLTAHHEMGHIQYDMAYASQPYLLRNGANEGFHEAVGEVMSLSVATPKHLKTMGLLSPDFREDDETEINFLLKQALNIVGTLPFTYMLEKWRWMVFKGEIPKEEWMKKWWEMKREIVGVVEPVPHDETYCDPASLFHVANDYSFIRYYTRTIFEFQFHEALCRIAQHNGPLHKCDISNSTDAGKKLHQMLSVGKSQAWTKTLEDIVDSRNMDVGPLLRYFKPLYTWLQEQNRKSYVGWNTDWSPYAD | 0.0692 s⁻¹ |  | 
bACE2-Rm residues 19 to 615 fused to the mouse Fc tag (bACE2-Rm-mFc) (Fc fusion, also called bACE2-Rm-HEK293T cells; bACE2-Rm-WT) STTEDEAKKFLDKFNSKAEDLSYESSLASWDYNTNISDENVQKMDEAGAKWSAFYEEQSKLAKNYPLEEIQNDTVKRQLQILQQSGSPVLSEDKSKRLNSILNAMSTIYSTGKVCKPNNPQECLLLEPGLDNIMGTSKDYNERLWAWEGWRAEVGKQLRPLYEEYVVLKNEMARGYHYEDYGDYWRRDYETEESSGPGYSRDQLMKDVDRIFTEIKPLYEHLHAYVRAKLMDTYPLHISPTGCLPAHLLGDMWGRFWTNLYPLTVPFGQKPNIDVTDAMLNQGWDANRIFKEAEKFFVSVSLPKMTEGFWNKSMLTEPGDGRKVVCHPTAWDLGKGDFRIKMCTKVTMEDFLTAHHEMGHIQYDMAYASQPYLLRNGANEGFHEAVGEVMSLSVATPKHLKTMGLLSPDFREDDETEINFLLKQALNIVGTLPFTYMLEKWRWMVFKGEIPKEEWMKKWWEMKREIVGVVEPVPHDETYCDPASLFHVANDYSFIRYYTRTIFEFQFHEALCRIAQHNGPLHKCDISNSTDAGKKLHQMLSVGKSQAWTKTLEDIVDSRNMDVGPLLRYFKPLYTWLQEQNRKSYVGWNTDWSPYAD |  | 2780 nM | 
bat ACE2 from Rhinolophus macrotis fused to the mouse Fc tag (bACE2-Rm-mFc) (Fc fusion) STTEDEAKKFLDKFNSKAEDLSYESSLASWDYNTNISDENVQKMDEAGAKWSAFYEEQSKLAKNYPLEEIQNDTVKRQLQILQQSGSPVLSEDKSKRLNSILNAMSTIYSTGKVCKPNNPQECLLLEPGLDNIMGTSKDYNERLWAWEGWRAEVGKQLRPLYEEYVVLKNEMARGYHYEDYGDYWRRDYETEESSGPGYSRDQLMKDVDRIFTEIKPLYEHLHAYVRAKLMDTYPLHISPTGCLPAHLLGDMWGRFWTNLYPLTVPFGQKPNIDVTDAMLNQGWDANRIFKEAEKFFVSVSLPKMTEGFWNKSMLTEPGDGRKVVCHPTAWDLGKGDFRIKMCTKVTMEDFLTAHHEMGHIQYDMAYASQPYLLRNGANEGFHEAVGEVMSLSVATPKHLKTMGLLSPDFREDDETEINFLLKQALNIVGTLPFTYMLEKWRWMVFKGEIPKEEWMKKWWEMKREIVGVVEPVPHDETYCDPASLFHVANDYSFIRYYTRTIFEFQFHEALCRIAQHNGPLHKCDISNSTDAGKKLHQMLSVGKSQAWTKTLEDIVDSRNMDVGPLLRYFKPLYTWLQEQNRKSYVGWNTDWSPYAD | 0.137 s⁻¹ |  | 
bACE2-Rm (bat ACE2 from Rhinolophus macrotis) expressed in insect cells, residues 19 to 615 (domain or fragment) STTEDEAKKFLDKFNSKAEDLSYESSLASWDYNTNISDENVQKMDEAGAKWSAFYEEQSKLAKNYPLEEIQNDTVKRQLQILQQSGSPVLSEDKSKRLNSILNAMSTIYSTGKVCKPNNPQECLLLEPGLDNIMGTSKDYNERLWAWEGWRAEVGKQLRPLYEEYVVLKNEMARGYHYEDYGDYWRRDYETEESSGPGYSRDQLMKDVDRIFTEIKPLYEHLHAYVRAKLMDTYPLHISPTGCLPAHLLGDMWGRFWTNLYPLTVPFGQKPNIDVTDAMLNQGWDANRIFKEAEKFFVSVSLPKMTEGFWNKSMLTEPGDGRKVVCHPTAWDLGKGDFRIKMCTKVTMEDFLTAHHEMGHIQYDMAYASQPYLLRNGANEGFHEAVGEVMSLSVATPKHLKTMGLLSPDFREDDETEINFLLKQALNIVGTLPFTYMLEKWRWMVFKGEIPKEEWMKKWWEMKREIVGVVEPVPHDETYCDPASLFHVANDYSFIRYYTRTIFEFQFHEALCRIAQHNGPLHKCDISNSTDAGKKLHQMLSVGKSQAWTKTLEDIVDSRNMDVGPLLRYFKPLYTWLQEQNRKSYVGWNTDWSPYAD |  | 1500 nM | 
bACE2 from Rhinolophus affinis (bACE2-Ra) (receptor) STTEDRAKIFLDNFNHEAEDLSYQSSLASWEYNTNISDENVQKMDEAGAKWSAFYEEQSKLAKNYPLEEIQTVPVKLQLQILQQSGSPVLSEDKSKRLNSILNAMSTIYSTGKVCKPNNPQECFLLEPGLDNIMGTSKDYNERLWAWEGWRAEVGKQLRPLYEEYVVLKNEMARGYHYEDYGDYWRRDYETEESSGSGYSRDQLMKDVDRIFTEIKPLYEHLHAYVRTKLMDTYPFHISPTGCLPAHLLGDMWGRFWTNLYPLTVPFGQKPNIDVTDAMVNQGWDANRIFKEAEKFFVSVGLPNMTEGFWNNSMLTEPGDGRKVVCHPTAWDLGKGDFRIKMCTKVTMEDFLTAHHEMGHIQYDMAYATQPYLLRNGANEGFHEAVGEVMSLSVATPKHLKTMGLLSPDFLEDNETEINFLLKQALNIVGTLPFTYMLEKWRWMVFRGEIPKEEWMKKWWEMKRDLVGVVEPVPHDETYCDPASLFHVANDYSFIRYYTRTIFEFQFHEALCRIAQHDGPLHKCDISNSTDAGKKLHQMLSVGKSQPWTVTLKDIVDSRNMDVGPLLRYFEPLYTWLQEQNRKSHVGWNTDWSPYSD |  |  | Kd [3]: 440 nM
bat ACE2 from Rhinolophus macrotis, expressed in E. coli and refolded (bACE2-Rm-E. coli) (domain or fragment) STTEDEAKKFLDKFNSKAEDLSYESSLASWDYNTNISDENVQKMDEAGAKWSAFYEEQSKLAKNYPLEEIQNDTVKRQLQILQQSGSPVLSEDKSKRLNSILNAMSTIYSTGKVCKPNNPQECLLLEPGLDNIMGTSKDYNERLWAWEGWRAEVGKQLRPLYEEYVVLKNEMARGYHYEDYGDYWRRDYETEESSGPGYSRDQLMKDVDRIFTEIKPLYEHLHAYVRAKLMDTYPLHISPTGCLPAHLLGDMWGRFWTNLYPLTVPFGQKPNIDVTDAMLNQGWDANRIFKEAEKFFVSVSLPKMTEGFWNKSMLTEPGDGRKVVCHPTAWDLGKGDFRIKMCTKVTMEDFLTAHHEMGHIQYDMAYASQPYLLRNGANEGFHEAVGEVMSLSVATPKHLKTMGLLSPDFREDDETEINFLLKQALNIVGTLPFTYMLEKWRWMVFKGEIPKEEWMKKWWEMKREIVGVVEPVPHDETYCDPASLFHVANDYSFIRYYTRTIFEFQFHEALCRIAQHNGPLHKCDISNSTDAGKKLHQMLSVGKSQAWTKTLEDIVDSRNMDVGPLLRYFKPLYTWLQEQNRKSYVGWNTDWSPYADQSIKVWISLKSALGEKAYEWNDNEMYLFRSSVAYAMREYFLKTKNQTILFGDENVWVSNLKPRISFNFHVTSPGNVSDIIPRPEVEGAIRMSRSRINDAFRLDDNSLEFLGIQPTLGPPYQPPVTI | 0.132 s⁻¹ |  | kon [1]: 102000 M⁻¹ s⁻¹
bACE2-Rm (bat ACE2 from Rhinolophus macrotis) expressed in E. coli, residues 19 to 741 (domain or fragment, also called bACE2-Rm-E. coli; bat ACE2-E. coli) STTEDEAKKFLDKFNSKAEDLSYESSLASWDYNTNISDENVQKMDEAGAKWSAFYEEQSKLAKNYPLEEIQNDTVKRQLQILQQSGSPVLSEDKSKRLNSILNAMSTIYSTGKVCKPNNPQECLLLEPGLDNIMGTSKDYNERLWAWEGWRAEVGKQLRPLYEEYVVLKNEMARGYHYEDYGDYWRRDYETEESSGPGYSRDQLMKDVDRIFTEIKPLYEHLHAYVRAKLMDTYPLHISPTGCLPAHLLGDMWGRFWTNLYPLTVPFGQKPNIDVTDAMLNQGWDANRIFKEAEKFFVSVSLPKMTEGFWNKSMLTEPGDGRKVVCHPTAWDLGKGDFRIKMCTKVTMEDFLTAHHEMGHIQYDMAYASQPYLLRNGANEGFHEAVGEVMSLSVATPKHLKTMGLLSPDFREDDETEINFLLKQALNIVGTLPFTYMLEKWRWMVFKGEIPKEEWMKKWWEMKREIVGVVEPVPHDETYCDPASLFHVANDYSFIRYYTRTIFEFQFHEALCRIAQHNGPLHKCDISNSTDAGKKLHQMLSVGKSQAWTKTLEDIVDSRNMDVGPLLRYFKPLYTWLQEQNRKSYVGWNTDWSPYADQSIKVWISLKSALGEKAYEWNDNEMYLFRSSVAYAMREYFLKTKNQTILFGDENVWVSNLKPRISFNFHVTSPGNVSDIIPRPEVEGAIRMSRSRINDAFRLDDNSLEFLGIQPTLGPPYQPPVTI |  | 1300 nM | binding result (crystal structure): binds
